T1: DOT1L repeat motif (Sites 2 and 3, aa. 863–900) (UniProt Q8TEK3 863-900)
T1 chain (looked up): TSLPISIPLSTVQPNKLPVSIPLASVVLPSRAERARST

B1: AF9 ANC1 homology domain (aa. 499–568) (domain or fragment, UniProt P42568 499-568, looked up)
chain: CDKAYLDELVELHRRLMTLRERHILQQIVNLIEETGHFHITNTTFDFDLCSLDKTTVRKLQSYLETSGTS

Key:
[1] = molecular target: DOT1L Site 1 peptide, fluorescently tagged (UniProt Q8TEK3); test: fluorescence polarisation
[2] = molecular target: DOT1L Site 2 peptide, fluorescently tagged (UniProt Q8TEK3); test: fluorescence polarisation
[3] = molecular target: T1, DOT1L repeat motif (Sites 2 and 3, aa. …); test: SEC

DOT1L Site 1 peptide, fluorescently tagged, sequence (Q8TEK3 628-653): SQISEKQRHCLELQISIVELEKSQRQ

Molecule	Kd [1]	fold weaker affinity than DOT1L (Site 3) [2]	stoichiometry N [3]
MBP-AF9 AHD (WT) (domain or fragment)	> 2000 nM	17 fold	
B1			2

— paper PMC4426023 (Cell reports, 2015)
